Substitutions are numbered along the chain they refer to.

B1: SEQ ID NO:17-13 (23F43) (mixed)
RNA: GGAGGUGCUCCGAAAGGAACUCCAAAAAAAAAAAAAAAA
modifications: as 17-8 with 2'-OMe C11
B2: SEQ ID NO:17-4 (23F10) (mixed)
RNA: B1 RNA
modifications: deoxy G1 G2 C11 G12-A15 C22 C23 and A16 tail; 2'-F U6 C8 U9 C10 C20 U21; rest 2'-OH
B3: SEQ ID NO:17-2 (23F2) (mixed)
RNA: B1 RNA
modifications: deoxy G1 G2 G12-A15 C22 C23 and A16 tail; 2'-F U6 C8 U9 C10 C11 C20 U21; rest 2'-OH
B4: SEQ ID NO:17-5 (23F11) (mixed)
RNA: B1 RNA
modifications: deoxy G1 G2 G12-G17 C22 C23 and A16 tail; 2'-F U6 C8 U9 C10 C11 C20 U21; rest 2'-OH
B5: SEQ ID NO:17-6 (23F12) (mixed)
RNA: B1 RNA
modifications: deoxy G1 G2 G7 G12-A15 C22 C23 and A16 tail; 2'-F U6 C8 U9 C10 C11 C20 U21; rest 2'-OH
B6: SEQ ID NO:17-1 (23F1) (mixed)
mixed: B1 RNA with U21T
modifications: 2'-F U6 C8 U9 C20; deoxy C10 C11 T21 C22 C23 and A16 tail; rest 2'-OH
B7: SEQ ID NO:17-14 (23F31) (mixed)
RNA: B1 RNA
modifications: as 17-7 with 2'-OMe U9
B8: SEQ ID NO:15 (ssRNA)
RNA: GGAGGUGCUCUGCGAGCCACGCGGAACUCC
modifications: 2'-F at all pyrimidines
B9: SEQ ID NO:11 (ssRNA)
RNA: GGACGAGUUACAGGUGCUCCAUCAACAAAAUGUUACAUGGAACUGUAACGGCCG
modifications: 2'-F at all pyrimidines
B10: SEQ ID NO:16 (ssRNA)
RNA: GGACAGGUGCUCCGAAAGGAACUGUCC
modifications: 2'-F at all pyrimidines
B11: SEQ ID NO:14 (ssRNA)
RNA: GGACAGGUGCUCUGCGGAAACGCGGAACUGUCC
modifications: 2'-F at all pyrimidines
B12: SEQ ID NO:10 (ssRNA)
RNA: GGAAUGGACGAGUUACAGGUGCUCCAUCAACAAAAUGUUACAUGGAACUGUAACGGCCGACAU
modifications: 2'-F at all pyrimidines
B13: SEQ ID NO:5 (ssRNA)
RNA: GGGACACAAUGGACGACUACAAGGUGCUCCUUGAAAUGUUAAAUGAGGAACUUGUAACGGCCGACAUGAGAG
modifications: 2'-F at all pyrimidines
B14: SEQ ID NO:2 (ssRNA)
RNA: GGGACACAAUGGACGUCAAAGAAGAGGUGCUCUGCGAGCCACGCGGAACUCUAUAACGGCCGACAUGAGAG
modifications: 2'-F at all pyrimidines
B15: SEQ ID NO:8 (ssRNA)
RNA: GGGACACAAUGGACGAAAGGUGCUCCAACUAAAUUUGGAACUUUCCACCCAUAAUAACGGCCGACAUGAGAG
modifications: 2'-F at all pyrimidines
B16: SEQ ID NO:3 (ssRNA)
RNA: GGGACACAAUGGACGGCGUAAAAUGGAACCUGGGUUAGAAUAUCGGGGGUGCUCCGUAACGGCCGACAUGAGAG
modifications: 2'-F at all pyrimidines
B17: SEQ ID NO:6 (ssRNA)
RNA: GGGACACAAUGGACGGCUGGUAAGGUGCUCGGAAUGGAACUCGUCAUUCGGAACUUAACGGCCGACAUGAGAG
modifications: 2'-F at all pyrimidines
B18: SEQ ID NO:4 (ssRNA)
RNA: GGGACACAAUGGACGGCCAACGUUAACUGGAACUGUAAAUCAGGUGCUCGAGAUAACGGCCGACAUGAGAG
modifications: 2'-F at all pyrimidines
B19: SEQ ID NO:7 (ssRNA)
RNA: GGGACACAAUGGACGGGUGUUACAGGUGCUUGAUAAAGGUAGAAAAUCAAACUGUAACGGCCGACAUGAGAG
modifications: 2'-F at all pyrimidines
B20: SEQ ID NO:9 (ssRNA)
RNA: GGGCCACAGCGAGGUGCUCCACCAUUCACGUGGAACUCGUGGGCAGCCCGUCCCCGCGUGUGGUCGG
modifications: 2'-F at all pyrimidines

T1 sequence (P01857 other isoform, or with tags, fused parts or gaps): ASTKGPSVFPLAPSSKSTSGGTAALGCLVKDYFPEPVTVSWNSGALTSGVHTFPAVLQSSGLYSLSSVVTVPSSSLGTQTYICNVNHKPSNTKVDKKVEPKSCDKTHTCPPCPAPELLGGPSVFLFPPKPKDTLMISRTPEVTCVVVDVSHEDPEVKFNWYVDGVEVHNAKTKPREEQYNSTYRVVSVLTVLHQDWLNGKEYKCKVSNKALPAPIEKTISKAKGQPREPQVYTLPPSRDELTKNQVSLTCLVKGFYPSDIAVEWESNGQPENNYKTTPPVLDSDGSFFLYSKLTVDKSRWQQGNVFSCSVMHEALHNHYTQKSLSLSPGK

The target in the first data set is T1, IgG1 (human, UniProt P01857-1 P01857-1:1-330). Put plainly: SPR; parent SEQ 17 ++. The following applies: tags: Calbiochem; chain copies: 2. On the procedure:
(§1) Used for the measurements was BIAcore 2000 manufactured by BIAcore. Used as the sensor chip was the SA chip having streptavidin immobilized thereon. Bound thereto was about 1000 RU of 16-residue Poly dT having biotin bound to the 5′ end thereof. The RNA for use as the ligand had 16-residue Poly A added to the 3′ end thereof, and immobilized to the SA chip via a bond between dT and A. The amount immobilized was adjusted to about 1000 RU by injecting 60 μL at a concentration of 0.01 μg/μL. 70 μL of IgG-Fc for analyte (manufactured by Athens Research & Technology), adjusted to 0.6 μM, was injected. The running buffer used had the same components as those of the solution A used in SELEX.
The RNAs were prepared by chemical synthesis (manufactured by Gene Design). Their binding affinities were measured by a surface plasmon resonance method as in Example 1. Used as the IgG was human IgG1 (manufactured by Calbiochem).
For orientation: In SPR one partner is held on a chip, and binding of the other changes the refractive index at the surface.
As for B1, the binding result was “binds”. On the same count and under the same terms, then B2, with “binds”; and B3, with “binds”; and B4, with “binds”. On the same count and under the same terms, in the case of B5 it was “binds”; in that of B6, “binds”. Still for that read-out and setting: then B7, with “binds”.

The next data set concerns the target T1, IgG1. Nature of the data set: SPR; solution A. The conditions noted are these: tags: Calbiochem; chain copies: 2; label: 3' A16 tail for SPR; 5' biotin for serum pull-down. As for the experimental part: as §1
The dissociation constant was determined by immobilizing an RNA having 16-residue PolyA added to the 3′ end thereof onto a sensor chip via an A-dT bond, injecting different concentrations of IgG (0.6 μM to 0.05 μM), and performing surface plasmon resonance.
Measurements were performed in the same manner as Example 1 by immobilizing an RNA having 16-residue Poly A added thereto via an A-pT bond, and injecting IgG thereto.
Usually Kd stands for the equilibrium constant for the complex coming apart. B8: the Kd turned out to be 5 nM.

The same data set, now with this note: tags: Calbiochem; chain copies: 2; label: 3' A16 tail for immobilisation.
The molecule B9 registered a Kd of 1 nM. B10 yielded a Kd of 6 nM. B11 had a Kd of 4 nM. Consider B12, for which binding was characterised by a dissociation constant (Kd) of 6 nM.

The same data set, now with this note: tags: Calbiochem; chain copies: 2; label: 3' A16 tail for immobilisation; GGUGCU bulge.
B13: the affinity, expressed as Kd, was 30 nM.

In turn, B14 yielded a Kd of 5 nM. In turn, B15 showed a Kd of 3 nM.

The molecule B16 returned a dissociation constant (Kd) of 10 nM.

The molecule B17 yielded an equilibrium dissociation constant (Kd) of 1 nM. Turning to B18, the affinity, expressed as Kd, was 20 nM. Molecule B19 displayed a Kd of 0.001 nM.

The same data set, now with this note: tags: Calbiochem; chain copies: 2; label: 3' A16 tail for immobilisation; GGUGCU bulge (vsfold4).
Take B20: binding was characterised by a dissociation constant (Kd) of 20 nM.

The values are drawn from patent US20090170219, “Nucleic acid capable of binding to immunoglobulin G and use thereof” (published 2009).
